Assay results from PMC7367873, “Dissecting the sequence determinants for dephosphorylation by the catalytic subunits of phosphatases PP1 and PP2A” (Nature Communications, 2020).
Blank lines part the entries; values can stand above or below the molecule they belong to.

Experiments:
GFP-14-3-3β = GFP-14-3-3β co-IP with LC-MS/MS, untreated GFP-14-3-3β versus GFP control (14-3-3 interactome); assay type: binding, human; conditions: pairwise comparison untreated vs GFP
[1] = tested on: GFP-14-3-3β and its binding proteins; assay: GFP-14-3-3β co-IP with LC-MS/MS label-free quantification, untreated versus PP1c-treated; design: species or system human; conditions: pairwise comparison PP1 vs untreated
[2] = log2 difference, label-free quantification, 3 replicates each

B3: ATP5O (protein, UniProt P48047 24-213, looked up)
ATP synthase peripheral stalk …: FAKLVRPPVQVYGIEGRYATALYSAASKQNKLEQVEKELLRVAQILKEPKVAASVLNPYVKRSIKVKSLNDITAKERFSPLTTNLINLLAENGRLSNTQGVVSAFSTMMSVHRGEVPCTVTSASPLEEATLSELKTVLKSFLSQGQVLKLEAKTDPSILGGMIVRIGEKYVDMSVKTKIQKLGRAMREIV
- Difference (log2), untreated vs GFP (GFP-14-3-3β): 0.8888 log2
- Difference (log2), PP1 vs untreated [1]: 0.2696 log2

B5: ACADM (protein, UniProt P11310 26-421, looked up)
Medium-chain specific …: KANRQREPGLGFSFEFTEQQKEFQATARKFAREEIIPVAAEYDKTGEYPVPLIRRAWELGLMNTHIPENCGGLGLGTFDACLISEELAYGCTGVQTAIEGNSLGQMPIIIAGNDQQKKKYLGRMTEEPLMCAYCVTEPGAGSDVAGIKTKAEKKGDEYIINGQKMWITNGGKANWYFLLARSDPDPKAPANKAFTGFIVEADTPGIQIGRKELNMGQRCSDTRGIVFEDVKVPKENVLIGDGAGFKVAMGAFDKTRPVVAAGAVGLAQRALDEATKYALERKTFGKLLVEHQAISFMLAEMAMKVELARMSYQRAAWEVDSGRRNTYYASIAKAFAGDIANQLATDAVQILGGNGFNTEYPVEKLMRDAKIYQIYEGTSQIQRLIVAREHIDKYKN
- Difference (log2), untreated vs GFP (GFP-14-3-3β; [2]): -2.884
- Difference (log2), PP1 vs untreated [1, 2]: 2.074

B6: ACSL3 (protein, UniProt O95573 1-720, looked up)
Fatty acid CoA ligase Acsl3: MNNHVSSKPSTMKLKHTINPILLYFIHFLISLYTILTYIPFYFFSESRQEKSNRIKAKPVNSKPDSAYRSVNSLDGLASVLYPGCDTLDKVFTYAKNKFKNKRLLGTREVLNEEDEVQPNGKIFKKVILGQYNWLSYEDVFVRAFNFGNGLQMLGQKPKTNIAIFCETRAEWMIAAQACFMYNFQLVTLYATLGGPAIVHALNETEVTNIITSKELLQTKLKDIVSLVPRLRHIITVDGKPPTWSEFPKGIIVHTMAAVEALGAKASMENQPHSKPLPSDIAVIMYTSGSTGLPKGVMISHSNIIAGITGMAERIPELGEEDVYIGYLPLAHVLELSAELVCLSHGCRIGYSSPQTLADQSSKIKKGSKGDTSMLKPTLMAAVPEIMDRIYKNVMNKVSEMSSFQRNLFILAYNYKMEQISKGRNTPLCDSFVFRKVRSLLGGNIRLLLCGGAPLSATTQRFMNICFCCPVGQGYGLTESAGAGTISEVWDYNTGRVGAPLVCCEIKLKNWEEGGYFNTDKPHPRGEILIGGQSVTMGYYKNEAKTKADFFEDENGQRWLCTGDIGEFEPDGCLKIIDRKKDLVKLQAGEYVSLGKVEAALKNLPLVDNICAYANSYHSYVIGFVVPNQKELTELARKKGLKGTWEELCNSCEMENEVLKVLSEAAISASLEKFEIPVKIRLSPEPWTPETGLVTDAFKLKRKELKTHYQADIERMYGRK
- Difference (log2), untreated vs GFP (GFP-14-3-3β): 0.1591 log2
- Difference (log2), PP1 vs untreated [1]: 0.2597 log2

Continued, in another order:

- Difference (log2), PP1 vs untreated [1]: 0.3073 log2
B1: UPF1 (protein, UniProt Q92900 1-1129, looked up)
Regulator of nonsense …: MSVEAYGPSSQTLTFLDTEEAELLGADTQGSEFEFTDFTLPSQTQTPPGGPGGPGGGGAGGPGGAGAGAAAGQLDAQVGPEGILQNGAVDDSVAKTSQLLAELNFEEDEEDTYYTKDLPIHACSYCGIHDPACVVYCNTSKKWFCNGRGNTSGSHIVNHLVRAKCKEVTLHKDGPLGETVLECYNCGCRNVFLLGFIPAKADSVVVLLCRQPCASQSSLKDINWDSSQWQPLIQDRCFLSWLVKIPSEQEQLRARQITAQQINKLEELWKENPSATLEDLEKPGVDEEPQHVLLRYEDAYQYQNIFGPLVKLEADYDKKLKESQTQDNITVRWDLGLNKKRIAYFTLPKTDSGNEDLVIIWLRDMRLMQGDEICLRYKGDLAPLWKGIGHVIKVPDNYGDEIAIELRSSVGAPVEVTHNFQVDFVWKSTSFDRMQSALKTFAVDETSVSGYIYHKLLGHEVEDVIIKCQLPKRFTAQGLPDLNHSQVYAVKTVLQRPLSLIQGPPGTGKTVTSATIVYHLARQGNGPVLVCAPSNIAVDQLTEKIHQTGLKVVRLCAKSREAIDSPVSFLALHNQIRNMDSMPELQKLQQLKDETGELSSADEKRYRALKRTAERELLMNADVICCTCVGAGDPRLAKMQFRSILIDESTQATEPECMVPVVLGAKQLILVGDHCQLGPVVMCKKAAKAGLSQSLFERLVVLGIRPIRLQVQYRMHPALSAFPSNIFYEGSLQNGVTAADRVKKGFDFQWPQPDKPMFFYVTQGQEEIASSGTSYLNRTEAANVEKITTKLLKAGAKPDQIGIITPYEGQRSYLVQYMQFSGSLHTKLYQEVEIASVDAFQGREKDFIILSCVRANEHQGIGFLNDPRRLNVALTRARYGVIIVGNPKALSKQPLWNHLLNYYKEQKVLVEGPLNNLRESLMQFSKPRKLVNTINPGARFMTTAMYDAREAIIPGSVYDRSSQGRPSSMYFQTHDQIGMISAGPSHVAAMNIPIPFNLVMPPMPPPGYFGQANGPAAGRGTPKGKTGRGGRQKNRFGLPGPSQTNLPNSQASQDVASQPFSQGALTQGYISMSQPSQMSQPGLSQPELSQDSYLGDEFKSQIDVALSQDSTYQGERAYQHGGVTGLSQY
- Difference (log2), untreated vs GFP (GFP-14-3-3β): 0.2927 log2

- Difference (log2), PP1 vs untreated [1]: 0.2864 log2
B2: MSN (protein, UniProt P26038 2-577, looked up)
Moesin: PKTISVRVTTMDAELEFAIQPNTTGKQLFDQVVKTIGLREVWFFGLQYQDTKGFSTWLKLNKKVTAQDVRKESPLLFKFRAKFYPEDVSEELIQDITQRLFFLQVKEGILNDDIYCPPETAVLLASYAVQSKYGDFNKEVHKSGYLAGDKLLPQRVLEQHKLNKDQWEERIQVWHEEHRGMLREDAVLEYLKIAQDLEMYGVNYFSIKNKKGSELWLGVDALGLNIYEQNDRLTPKIGFPWSEIRNISFNDKKFVIKPIDKKAPDFVFYAPRLRINKRILALCMGNHELYMRRRKPDTIEVQQMKAQAREEKHQKQMERAMLENEKKKREMAEKEKEKIEREKEELMERLKQIEEQTKKAQQELEEQTRRALELEQERKRAQSEAEKLAKERQEAEEAKEALLQASRDQKKTQEQLALEMAELTARISQLEMARQKKESEAVEWQQKAQMVQEDLEKTRAELKTAMSTPHVAEPAENEQDEQDENGAEASADLRADAMAKDRSEEERTTEAEKNERVQKHLKALTSELANARDESKKTANDMIHAENMRLGRDKYKTLRQIRQGNTKQRIDEFESM
- Difference (log2), untreated vs GFP (GFP-14-3-3β): 0.7577 log2

- Difference (log2), PP1 vs untreated [1]: 0.2613 log2
B4: RARS (protein, UniProt P54136 1-660, looked up)
Arginine--tRNA ligase, …: MDVLVSECSARLLQQEEEIKSLTAEIDRLKNCGCLGASPNLEQLQEENLKLKYRLNILRKSLQAERNKPTKNMINIISRLQEVFGHAIKAAYPDLENPPLLVTPSQQAKFGDYQCNSAMGISQMLKTKEQKVNPREIAENITKHLPDNECIEKVEIAGPGFINVHLRKDFVSEQLTSLLVNGVQLPALGENKKVIVDFSSPNIAKEMHVGHLRSTIIGESISRLFEFAGYDVLRLNHVGDWGTQFGMLIAHLQDKFPDYLTVSPPIGDLQVFYKESKKRFDTEEEFKKRAYQCVVLLQGKNPDITKAWKLICDVSRQELNKIYDALDVSLIERGESFYQDRMNDIVKEFEDRGFVQVDDGRKIVFVPGCSIPLTIVKSDGGYTYDTSDLAAIKQRLFEEKADMIIYVVDNGQSVHFQTIFAAAQMIGWYDPKVTRVFHAGFGVVLGEDKKKFKTRSGETVRLMDLLGEGLKRSMDKLKEKERDKVLTAEELNAAQTSVAYGCIKYADLSHNRLNDYIFSFDKMLDDRGNTAAYLLYAFTRIRSIARLANIDEEMLQKAARETKILLDHEKEWKLGRCILRFPEILQKILDDLFLHTLCDYIYELATAFTEFYDSCYCVEKDRQTGKILKVNMWRMLLCEAVAAVMAKGFDILGIKPVQRM
- Difference (log2), untreated vs GFP (GFP-14-3-3β): -0.5854 log2
